Target: His-tagged full-length Ajuba (UniProt Q96IF1)
Experiment: pull-down

RPA70-OB½ABC, aa 234-612, sequence (P27694 234-612): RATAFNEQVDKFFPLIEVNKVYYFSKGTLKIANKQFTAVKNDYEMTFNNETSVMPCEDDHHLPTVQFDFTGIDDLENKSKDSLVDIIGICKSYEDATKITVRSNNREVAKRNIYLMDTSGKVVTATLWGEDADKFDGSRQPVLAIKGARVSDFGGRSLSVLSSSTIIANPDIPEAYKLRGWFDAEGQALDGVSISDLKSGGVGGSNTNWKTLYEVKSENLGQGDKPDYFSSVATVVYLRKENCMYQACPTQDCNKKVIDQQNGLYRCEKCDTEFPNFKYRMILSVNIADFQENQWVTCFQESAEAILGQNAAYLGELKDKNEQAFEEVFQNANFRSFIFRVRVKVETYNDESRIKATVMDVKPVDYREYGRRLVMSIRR

pull down relative to full-length RPA70 (100%): 58.7%
Substance: RPA70-OB½ABC, aa 234-612 (from UniProt P27694 234-612) (domain or fragment)

From paper doi:10.1101/177840
